Results as given in US20260008864A1 (CITY OF HOPE, published 2026).
One block for each binder: values may come before it.

Assays:
[1] = target: T1, CD38 on cells (Nomo-1, SKM-1, MM1S, THP-1, HL60, PBMC, primary patient samples) (UniProt P28907 1-300); test: flow cytometry, PBMC treated 1 h with 10 ug/mL of the binder, dot plot CD38-PE against CD3-V450; the C-IgG panel prints 48%; CD3+CD38+ quadrant of this panel: 0%; the filing reads the figure as binding to CD3 and CD38
T1 construct: whole, on cells
Protocol: (§1) The CD3-CD38 compounds were then incubated with PBMCs to assess binding to CD3 and CD38 antigens presented on effector cells.

CD3-Fc = target: T2, CD3-Fc; test: SPR, CD3-Fc immobilised on CM5 chip, 25 C
T2 construct: Immobilised on a CM5 chip at 1000 RU; also called CD3 target
Protocol: CD3-Fc was immobilized on a CM5 sensor chip at 1000 response units (RU) using ECD/NHS coupling methods. […] All samples were prepared at concentrations of 30 nM, 10 nM, 3 nM or 1 nM in HBS-EP+ runner buffer at 25° C.

[2] = target: T3, CD3 on cells (PBMC, primary patient samples); test: flow cytometry, PBMC treated 1 h with 10 ug/mL of the binder, dot plot CD38-PE against CD3-V450; the C-IgG panel prints 25%; the filing reads the figure as binding to CD3 and CD38
T3 construct: whole, on cells
Protocol: as §1

CD38-Fc [3] = target: T4, CD38-Fc (UniProt P28907 43-300); test: SPR, CD38-Fc immobilised on CM5 chip, 25 C
T4 construct: Immobilised on a CM5 chip at 200 RU; also called CD38 antigen target; not shown: Fc part
Protocol: (§2) CD38-Fc was immobilized on a CM5 sensor chip at 200 response units (RU) using ECD/NHS coupling. […] These bispecific compounds include a protease cleavage site within one of the linker regions. […] All samples were prepared at concentrations of 30 nM, 10 nM, 3 nM or 1 nM in HBS-EP+ runner buffer at 25° C.

CD38-Fc [4] = target: T4, CD38-Fc; test: SPR, CD38-Fc immobilised on CM5 chip, 25 C; ** = kd outside of detectable limits
Protocol: as §2

CD38+ (% of PBMC in the CD38-PE positive, CD3-V450 negative quadrant) [1]: 15% | Kd (CD3-Fc): 522 nM | koff (CD3-Fc): 0.0525 s⁻¹ | kon (CD3-Fc): 101000 M⁻¹ s⁻¹ | CD3 (% of PBMC in the CD3-V450 positive, CD38-PE negative quadrant) [2]: 12% | Kd (CD38-Fc [3]): 0.478 nM | koff (CD38-Fc [3]): 6.84e-05 s⁻¹ | kon (CD38-Fc [3]): 143000 M⁻¹ s⁻¹
B1: 3-38BN003 (5F21) (bispecific antibody)
chain: EVQLVESGGGLVQPGRSLRLSCAASGFTFDDYTMHWVRQAPGKGLEWVSDISWNSGSIGYADSVKGRFTVSRDNAKNSLYLQMNSLRGEDTAIYYCAKDMSGYGHYGKYGMDVWGQGTTVTVSSASTKGPSVFPLAPSSKSTSGGTAALGCLVKDYFPEPVTVSWNSGALTSGVHTFPAVLQSSGLYSLSSVVTVPSSSLGTQTYICNVNHKPSNTKVDKKVEPKSCAASGGAGSDVQLQESGGGSVQAGGSLTLSCTASGLLFRLASMGWYRQAPGKERELIATITVGGKTNYKDSVQGRFIITRDNTGDNTKSTVTLQMNRLKPEDTAVYYCNTASPAVGADTWGQGTRVTVSSGAVPLSLYGAGGDIQMTQSPILLSASVGDRVTITCRASQSIRSYLNWYQQRTNGSPRLLIYAASSLQSGVPSRFSGSGSGTDFTLTINSLQPDDEADYYCQQTYSNPPITFGAGTRLEIKRTVAAPSVFIFPPSDEQLKSGTASVVCLLNNFYPREAKVQWKVDNALQSGNSQESVTEQDSKDSTYSLSSTLTLSKADYEKHKVYACEVTHQGLSSPVTKSFNRGEC
notes: Single chain with cleavable linker L2 (MMP-9 site); also called 38N003; CD3HC-L1-CD38nanobody (5F21)-L2-CD3LC

CD38+ (% of PBMC in the CD38-PE positive, CD3-V450 negative quadrant) [1]: 11% | CD3 (% of PBMC in the CD3-V450 positive, CD38-PE negative quadrant) [2]: 12% | Kd (CD38-Fc [3]): 0.473 nM | koff (CD38-Fc [3]): 7.33e-05 s⁻¹ | kon (CD38-Fc [3]): 155000 M⁻¹ s⁻¹
B2: 3-38BN006 (5F21) (bispecific antibody)
chain: EVQLVESGGGLVQPGRSLRLSCAASGFTFDDYTMHWVRQAPGKGLEWVSDISWNSGSIGYADSVKGRFTVSRDNAKNSLYLQMNSLRGEDTAIYYCAKDMSGYGHYGKYGMDVWGQGTTVTVSSASTKGPSVFPLAPSSKSTSGGTAALGCLVKDYFPEPVTVSWNSGALTSGVHTFPAVLQSSGLYSLSSVVTVPSSSLGTQTYICNVNHKPSNTKVDKKVEPKSCAASGGAGSDVQLQESGGGSVQAGGSLTLSCTASGLLFRLASMGWYRQAPGKERELIATITVGGKTNYKDSVQGRFIITRDNTGDNTKSTVTLQMNRLKPEDTAVYYCNTASPAVGADTWGQGTRVTVSSSSGASASAAGGSDIQMTQSPILLSASVGDRVTITCRASQSIRSYLNWYQQRTNGSPRLLIYAASSLQSGVPSRFSGSGSGTDFTLTINSLQPDDEADYYCQQTYSNPPITFGAGTRLEIKRTVAAPSVFIFPPSDEQLKSGTASVVCLLNNFYPREAKVQWKVDNALQSGNSQESVTEQDSKDSTYSLSSTLTLSKADYEKHKVYACEVTHQGLSSPVTKSFNRGEC
notes: Single chain with non-cleavable linker L2; also called 38N006; CD3HC-L1-CD38nanobody (5F21)-L2-CD3LC

Kd (CD3-Fc): 530 nM | koff (CD3-Fc): 0.0227 s⁻¹ | kon (CD3-Fc): 42900 M⁻¹ s⁻¹ | CD3 (% of PBMC in the CD3-V450 positive, CD38-PE negative quadrant) [2]: 12% | Kd (CD38-Fc [3]): 0.772 nM | koff (CD38-Fc [3]): 0.000127 s⁻¹ | kon (CD38-Fc [3]): 165000 M⁻¹ s⁻¹
B3: 3-38BN002 (5F1O) (bispecific antibody)
chain: EVQLVESGGGLVQPGRSLRLSCAASGFTFDDYTMHWVRQAPGKGLEWVSDISWNSGSIGYADSVKGRFTVSRDNAKNSLYLQMNSLRGEDTAIYYCAKDMSGYGHYGKYGMDVWGQGTTVTVSSASTKGPSVFPLAPSSKSTSGGTAALGCLVKDYFPEPVTVSWNSGALTSGVHTFPAVLQSSGLYSLSSVVTVPSSSLGTQTYICNVNHKPSNTKVDKKVEPKSCAASGGAGSDVQLQESGGGLVQAGHSLRLSCVGSGSRFDNYAMGWFRQAPGKEREFVAAISWSSGTTRYLDTVKGRFTISRDNAKSTVYLQMNSLKPEDTAVYYCAARYQPRYYDSGDMDGYEYDNWGQGTQVTVSSGAVPLSLYGAGGDIQMTQSPILLSASVGDRVTITCRASQSIRSYLNWYQQRTNGSPRLLIYAASSLQSGVPSRFSGSGSGTDFTLTINSLQPDDEADYYCQQTYSNPPITFGAGTRLEIKRTVAAPSVFIFPPSDEQLKSGTASVVCLLNNFYPREAKVQWKVDNALQSGNSQESVTEQDSKDSTYSLSSTLTLSKADYEKHKVYACEVTHQGLSSPVTKSFNRGEC
notes: Single chain with cleavable linker L2 (MMP-9 site); also called 38N002; CD3HC-L1-CD38nanobody (5F1O)-L2-CD3LC

koff (CD38-Fc [4]): < 1e-05 s⁻¹ | CD3 (% of PBMC in the CD3-V450 positive, CD38-PE negative quadrant) [2]: 11% | kon (CD38-Fc [3]): 590000 M⁻¹ s⁻¹
B4: 3-38BN005 (5F1O) (bispecific antibody)
chain: EVQLVESGGGLVQPGRSLRLSCAASGFTFDDYTMHWVRQAPGKGLEWVSDISWNSGSIGYADSVKGRFTVSRDNAKNSLYLQMNSLRGEDTAIYYCAKDMSGYGHYGKYGMDVWGQGTTVTVSSASTKGPSVFPLAPSSKSTSGGTAALGCLVKDYFPEPVTVSWNSGALTSGVHTFPAVLQSSGLYSLSSVVTVPSSSLGTQTYICNVNHKPSNTKVDKKVEPKSCAASGGAGSDVQLQESGGGLVQAGHSLRLSCVGSGSRFDNYAMGWFRQAPGKEREFVAAISWSSGTTRYLDTVKGRFTISRDNAKSTVYLQMNSLKPEDTAVYYCAARYQPRYYDSGDMDGYEYDNWGQGTQVTVSSSSGASASAAGGSDIQMTQSPILLSASVGDRVTITCRASQSIRSYLNWYQQRTNGSPRLLIYAASSLQSGVPSRFSGSGSGTDFTLTINSLQPDDEADYYCQQTYSNPPITFGAGTRLEIKRTVAAPSVFIFPPSDEQLKSGTASVVCLLNNFYPREAKVQWKVDNALQSGNSQESVTEQDSKDSTYSLSSTLTLSKADYEKHKVYACEVTHQGLSSPVTKSFNRGEC
notes: Single chain with non-cleavable linker L2; also called CD3HC-L1-CD38nanobody (5F1O)-L2-CD3LC

CD38+ (% of PBMC in the CD38-PE positive, CD3-V450 negative quadrant) [1]: 1% | CD3 (% of PBMC in the CD3-V450 positive, CD38-PE negative quadrant) [2]: 13% | Kd (CD38-Fc [3]): 0.946 nM | koff (CD38-Fc [3]): 0.000696 s⁻¹ | kon (CD38-Fc [3]): 735000 M⁻¹ s⁻¹
B5: 3-38BN001 (5F1K) (bispecific antibody)
chain: EVQLVESGGGLVQPGRSLRLSCAASGFTFDDYTMHWVRQAPGKGLEWVSDISWNSGSIGYADSVKGRFTVSRDNAKNSLYLQMNSLRGEDTAIYYCAKDMSGYGHYGKYGMDVWGQGTTVTVSSASTKGPSVFPLAPSSKSTSGGTAALGCLVKDYFPEPVTVSWNSGALTSGVHTFPAVLQSSGLYSLSSVVTVPSSSLGTQTYICNVNHKPSNTKVDKKVEPKSCAASGGAGSDVQLQESGGGLVQAGGSLRLSCTGSGRTFRNYPMAWFRQAPGKEREFVAGITWVGASTLYADFAKGRFTISRDNAKNTVYLQMNSLKPEDTAVYSCAAGRGIVAGRIPAEYADWGQGTQVTVSSGAVPLSLYGAGGDIQMTQSPILLSASVGDRVTITCRASQSIRSYLNWYQQRTNGSPRLLIYAASSLQSGVPSRFSGSGSGTDFTLTINSLQPDDEADYYCQQTYSNPPITFGAGTRLEIKRTVAAPSVFIFPPSDEQLKSGTASVVCLLNNFYPREAKVQWKVDNALQSGNSQESVTEQDSKDSTYSLSSTLTLSKADYEKHKVYACEVTHQGLSSPVTKSFNRGEC
notes: Single-chain anti-CD3 Fab heavy chain - linker L1 - anti-CD38 nanobody 5F1K - cleavable linker L2 (MMP-9 site) - anti-CD3 light chain; also called 3-38N001; CD3HC-L1-CD38nanobody (5F1K)-L2-CD3LC

CD38+ (% of PBMC in the CD38-PE positive, CD3-V450 negative quadrant) [1]: 1% | CD3 (% of PBMC in the CD3-V450 positive, CD38-PE negative quadrant) [2]: 11% | Kd (CD38-Fc [3]): 0.962 nM | koff (CD38-Fc [3]): 0.000711 s⁻¹ | kon (CD38-Fc [3]): 740000 M⁻¹ s⁻¹
B6: 3-38BN004 (5F1K) (bispecific antibody)
chain: EVQLVESGGGLVQPGRSLRLSCAASGFTFDDYTMHWVRQAPGKGLEWVSDISWNSGSIGYADSVKGRFTVSRDNAKNSLYLQMNSLRGEDTAIYYCAKDMSGYGHYGKYGMDVWGQGTTVTVSSASTKGPSVFPLAPSSKSTSGGTAALGCLVKDYFPEPVTVSWNSGALTSGVHTFPAVLQSSGLYSLSSVVTVPSSSLGTQTYICNVNHKPSNTKVDKKVEPKSCAASGGAGSDVQLQESGGGLVQAGGSLRLSCTGSGRTFRNYPMAWFRQAPGKEREFVAGITWVGASTLYADFAKGRFTISRDNAKNTVYLQMNSLKPEDTAVYSCAAGRGIVAGRIPAEYADWGQGTQVTVSSSSGASASAAGGSDIQMTQSPILLSASVGDRVTITCRASQSIRSYLNWYQQRTNGSPRLLIYAASSLQSGVPSRFSGSGSGTDFTLTINSLQPDDEADYYCQQTYSNPPITFGAGTRLEIKRTVAAPSVFIFPPSDEQLKSGTASVVCLLNNFYPREAKVQWKVDNALQSGNSQESVTEQDSKDSTYSLSSTLTLSKADYEKHKVYACEVTHQGLSSPVTKSFNRGEC
notes: also called 3-38N004; CD38-CD3 BIONIC
